The text below walks through data of patent publication US10280205B2, “Method for treating cancer with an activated T lymphocyte that selectively recognizes a cancer cell consisting of specific peptide” (immatics biotechnologies GmbH, priority 2015, dated 2019).

The target of the assay is HLA-A*02:01 (Homo sapiens, UniProt P04439, D140Y/D185E/D98H/E176V/E277Q/G131W/G231S/I119V/I121R/I166T/I218V/L300P/L318F/N151K/N90K/P208A/P217A/Q86G/Q94H/R138H/R169H/T345S). In words: MHC binding assay: UV-ligand exchange with beta2m ELISA (exchange yield). Conditions: binding to HLA-A*02:01, β2m ELISA. The procedure, abridged: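 Exchange yield reflects how much β2m remains bound, measured by ELISA: streptavidin capture of 100-fold diluted monomers, HRP anti-β2m at 37° C. for 1 h, TMB read at 450 nm. Monomers come from UV cleavage of a conditional HLA-A*02:01 ligand in the presence of the candidate peptide.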
For orientation: ELISA stands for enzyme-linked immunosorbent assay.
For the substance “347 (SLFKHDPAAWEA; listed as Homo sapiens) [compound 347]”, the “Peptide exchange (MHC class I binding score, peptide exchange yield)” value (“Peptide exchange” below) is ““++++” (≥75% = ++++)”.
Consider “286 (YLFPGIPEL; listed as Homo sapiens) [compound 286]”, for which the “Peptide exchange” value is ““+++” (≥50 = +++)”.
For “309 (GLFDGVPTTA; listed as Homo sapiens) [compound 309]” the value was ““+++” (≥50 = +++)”.
Then “207 (GLTSTNAEV; listed as Homo sapiens) [compound 207]”, with ““++” (≥20% = ++)”.
Regarding “246 (LLWEVVSQL; listed as Homo sapiens) [compound 246]”, the “Peptide exchange” value is ““+++” (≥50 = +++)”.
Then “340 (ALLSMTFPL; listed as Homo sapiens) [compound 340]”, with ““++++” (≥75% = ++++)”; and “607 (RLYSGISGLEL; listed as Homo sapiens) [compound 607]”, with ““+++” (≥50 = +++)”; and “573 (ILVANAIVGV; listed as Homo sapiens) [compound 573]”, with ““+++” (≥50 = +++)”.
As to “252 (LLIGTDVSL; listed as Homo sapiens) [compound 252]”, the “Peptide exchange” value is ““+++” (≥50 = +++)”.
Then “237 (ALLEASGTLLL; listed as Homo sapiens) [compound 237]”, with ““++++” (≥75% = ++++)”; and “449 (KLAEGLDIQL; listed as Homo sapiens) [compound 449]”, with ““+++” (≥50 = +++)”.
For “438 (KLLPLAGLYL; listed as Homo sapiens) [compound 438]” the value was ““++++” (≥75% = ++++)”; for “239 (AAFAGKLLSV; listed as Homo sapiens) [compound 239]”, ““+++” (≥50 = +++)”.
For “351 (SLIPNLRNV; listed as Homo sapiens) [compound 351]” the value was ““+++” (≥50 = +++)”.
As to “226 (MLYVVPIYL; listed as Homo sapiens) [compound 226]”, the “Peptide exchange” value is given as ““++” (≥20% = ++)”.
Then “367 (SLQNHNHQL; listed as Homo sapiens) [compound 367]”, with ““+++” (≥50 = +++)”; and “250 (ALSEEGLLVYL; listed as Homo sapiens) [compound 250]”, with ““+++” (≥50 = +++)”; and “23 (VLLDDIFAQL; listed as Homo sapiens) [compound 23]”, with ““+++” (≥50 = +++)”.
Then “72 (SLLELDGINL; listed as Homo sapiens) [compound 72]”, with ““+++” (≥50 = +++)”; and “537 (TLAPGEVLRSV; listed as Homo sapiens) [compound 537]”, with ““+++” (≥50 = +++)”.
Then “556 (FLTDLEDLTL; listed as Homo sapiens) [compound 556]”, with ““+++” (≥50 = +++)”.
As for “563 (WLLPYNGVTV; listed as Homo sapiens) [compound 563]”, the “Peptide exchange” value is ““+++” (≥50 = +++)”.
In the case of “194 (ALPLFVITV; listed as Homo sapiens) [compound 194]”, the “Peptide exchange” value is reported as ““+++” (≥50 = +++)”.
On to “371 (FLQAHLHTA; listed as Homo sapiens) [compound 371]”, for which the “Peptide exchange” value was ““++++” (≥75% = ++++)”.
Then “109 (IILSILEQA; listed as Homo sapiens) [compound 109]”, with ““++++” (≥75% = ++++)”; and “142 (FLFATPVFI; listed as Homo sapiens) [compound 142]”, with ““+++” (≥50 = +++)”; and “111 (YVWGFYPAEV; listed as Homo sapiens) [compound 111]”, with ““+++” (≥50 = +++)”.
On to “125 (VQIHQVAQV; listed as Homo sapiens) [compound 125]”, for which the “Peptide exchange” value was ““+++” (≥50 = +++)”.
As to “458 (SLIDKLYNI; listed as Homo sapiens) [compound 458]”, the “Peptide exchange” value is listed as ““++” (≥20% = ++)”.
For the substance “55 (SLLDLETLSL; listed as Homo sapiens) [compound 55]”, the “Peptide exchange” value is ““++++” (≥75% = ++++)”.
In the case of “337 (HLLSELEAAPYL; listed as Homo sapiens) [compound 337]”, the “Peptide exchange” value is ““++++” (≥75% = ++++)”.
For “140 (YMDAPKAAL; listed as Homo sapiens) [compound 140]” the value was ““++” (≥20% = ++)”.
With “409 (LLDAMNYHL; listed as Homo sapiens) [compound 409]”, the “Peptide exchange” value is listed as ““++” (≥20% = ++)”.
For the substance “339 (GLWEIENNPTVKA; listed as Homo sapiens) [compound 339]”, the “Peptide exchange” value is ““++++” (≥75% = ++++)”.
Then “364 (LLQNEQFEL; listed as Homo sapiens) [compound 364]”, with ““+++” (≥50 = +++)”; and “619 (ALQDRVPLA; listed as Homo sapiens) [compound 619]”, with ““+++” (≥50 = +++)”.
For “90 (TLLQIIETV; listed as Homo sapiens) [compound 90]” the value was ““+++” (≥50 = +++)”; for “281 (ILRESTEEL; listed as Homo sapiens) [compound 281]”, ““+++” (≥50 = +++)”; for “392 (ALLHPQGFEV; listed as Homo sapiens) [compound 392]”, ““++” (≥20% = ++)”.
Then “188 (GLFPVTPEAV; listed as Homo sapiens) [compound 188]”, with ““+++” (≥50 = +++)”.
Turning to “391 (YVYPQRLNFV; listed as Homo sapiens) [compound 391]”, the “Peptide exchange” value is on record as ““+++” (≥50 = +++)”.
“317 (SLAALVVHV; listed as Homo sapiens) [compound 317]”: the “Peptide exchange” value is recorded as ““+++” (≥50 = +++)”.
Then “598 (FLFPHSVLV; listed as Homo sapiens) [compound 598]”, with ““+++” (≥50 = +++)”; and “89 (YILPTETIYV; listed as Homo sapiens) [compound 89]”, with ““++++” (≥75% = ++++)”.
Then “164 (ALLPQPKNLTV; listed as Homo sapiens) [compound 164]”, with ““+++” (≥50 = +++)”.
